Results published in patent US12123042.

Tested on: cytochrome C

Chain of S. rebaudiana CPR1 (cytochrome P450 reductase) (chain, as listed by the source): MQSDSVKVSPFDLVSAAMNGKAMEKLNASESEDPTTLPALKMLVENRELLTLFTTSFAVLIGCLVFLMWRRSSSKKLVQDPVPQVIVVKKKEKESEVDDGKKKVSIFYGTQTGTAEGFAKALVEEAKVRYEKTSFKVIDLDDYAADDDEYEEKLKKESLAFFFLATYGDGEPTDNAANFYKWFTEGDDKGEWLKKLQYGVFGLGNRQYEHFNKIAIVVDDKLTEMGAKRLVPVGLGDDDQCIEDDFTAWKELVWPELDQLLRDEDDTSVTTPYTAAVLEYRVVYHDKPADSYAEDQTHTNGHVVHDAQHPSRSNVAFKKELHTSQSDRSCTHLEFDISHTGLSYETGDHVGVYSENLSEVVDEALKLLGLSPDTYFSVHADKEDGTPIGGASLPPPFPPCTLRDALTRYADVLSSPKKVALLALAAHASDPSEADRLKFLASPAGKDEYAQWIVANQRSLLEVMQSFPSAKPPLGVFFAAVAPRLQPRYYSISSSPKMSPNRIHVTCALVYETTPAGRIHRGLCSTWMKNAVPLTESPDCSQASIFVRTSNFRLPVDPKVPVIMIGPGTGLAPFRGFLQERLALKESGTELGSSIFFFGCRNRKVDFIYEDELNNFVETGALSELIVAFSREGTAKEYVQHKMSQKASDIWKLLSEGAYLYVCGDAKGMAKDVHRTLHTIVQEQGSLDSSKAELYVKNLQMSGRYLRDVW

S. rebaudiana CPR1 (cytochrome P450 reductase)
CPR activity (cytochrome C reductase assay, increase in absorbance at 550 nm, units/mg microsomal protein): 7- and 14-fold higher activity, respectively, compared to the negative control
